Experimental data: US8778645B2, “Method for the production of glutaconate” (BASF SE, priority 2009, dated 2014)

Assays:
[1] = biological target: Glutaconate CoA-transferase from A. fermentans (Acidaminococcus fermentans, UniProt Q59111+Q59112); conditions: Buckel et al. 1981; cited from earlier work
[2] = substrate: CC(C)(COP(=O)(O)OP(=O)(O)OC[C@H]1O[C@@H](n2cnc3c(N)ncnc32)[C@H](O)[C@@H]1OP(=O)(O)O)[C@@H](O)C(=O)NCCC(=O)NCCSC(=O)/C=C/C=C/C(=O)O; test: Substrate kinetics of 2-hydroxyglutaryl-CoA dehydratase with activator; assay type: biochemical, Clostridium symbiosum; conditions: other: substrate of the dehydratase; pH 7.0
Description: (§1) 2-Hydroxyglutaryl-CoA dehydratase activity was measured under anoxic conditions at ambient temperature in cuvettes of 0.5 ml total volume containing 50 mM Mops/KOH pH 7.0, 10 mM dithiothreitol, 5 mM MgCl2, 0.1 mM dithionite, 0.4 mM ATP, and […] with activator. After 10 minutes of incubation the reaction was started with 2 mM acetyl-CoA and 2 mM (R)-2-hydroxyglutarate. The increase of absorbance due to the formation of glutaconyl-CoA was followed at 290 nm (ε=2.2 mM^−1 cm^−1) (Kim J, Darley D J, Buckel W, Pierik A J (2008) An allylic ketyl radical intermediate in clostridial amino-acid fermentation. Nature 452:239-242).
(§2) a) 2-Hydroxyglutaryl-CoA dehydratase from Clostridium symbiosum and activator from Acidaminococcus fermentans

[3] = substrate: CC(C)(COP(=O)(O)OP(=O)(O)OC[C@H]1O[C@@H](n2cnc3c(N)ncnc32)[C@H](O)[C@@H]1OP(=O)(O)O)[C@@H](O)C(=O)NCCC(=O)NCCSC(=O)C(O)CCCC(=O)O; test: as above; assay type: biochemical, Clostridium symbiosum; conditions: other: substrate of the dehydratase; pH 7.0
Description: as §1, §2

[4] = substrate: CC(C)(COP(=O)(O)OP(=O)(O)OC[C@H]1O[C@@H](n2cnc3c(N)ncnc32)[C@H](O)[C@@H]1OP(=O)(O)O)[C@@H](O)C(=O)NCCC(=O)NCCSC(=O)[C@H](O)CCC(=O)O; test: as above; assay type: biochemical, Clostridium symbiosum; conditions: other: substrate of the dehydratase; pH 7.0
Description: as §1, §2

[5] = 2-Hydroxyglutaryl-CoA dehydratase activity in recombinant E. coli BL21; assay type: biochemical, C. symbiosum; conditions: recombinant E. coli BL21, with activator
Description: as §1
(§3) The genes were transformed into modified E. coli BL21-CodonPlus (DE3). An overnight anaerobic preculture (100 ml) of a fresh single colony was used to inoculate 1 liter Standard I medium, described above, containing antibiotics (carbenicillin, 100 μg·ml^−1; chloramphenicol, 50 μg·ml^−1) and grown at the same conditions. When the culture reached OD578=0.2, gene expression was induced with isopropyl-1-thio-β-D-galactoside, IPTG (240 mg·liter^−1) and anhydrotetracycline, AHT (200 μg·liter^−1). […]
(§4) In Table 9 the enzymatic activities are shown, which were measured in the recombinant E. coli strain.

[6] = 2-Hydroxyglutarate dehydrogenase activity in recombinant E. coli BL21; assay type: biochemical, A. fermentans
Description: 2-Hydroxyglutarate dehydrogenase activity was measured at ambient temperature in cuvettes of 0.5 ml total volume containing 0.1 M Tris/HCl pH 8.0, 0.2 mM NADH and 2-hydroxyglutarate dehydrogenase at room temperature. After addition of 1 mM α-ketoglutarate, the absorbance decrease of NADH was monitored at 340 nm (ε=6.3 mM^−1 cm^−1) (Bresser J (1997) (R)-2-Hydroxyglutarat-Dehydrogenase aus Acidaminococcus fermentans. PhD Thesis, Philipps-Universitä t Marburg, Germany; Martins B M, Macedo-Ribeiro S, Bresser J, Buckel W, Messerschmidt A (2005) Structural basis for stereo-specific catalysis in NAD^+-dependent (R)-2-hydroxyglutarate dehydrogenase from Acidaminococcus fermentans. Febs J 272:269-281).
as §3, §4

[7] = Glutaconate CoA-transferase activity in recombinant E. coli BL21; assay type: biochemical, A. fermentans
Description: Glutaconate CoA-transferase activity assay was performed aerobically at room temperature. The increase of absorbance was followed at 412 nm, Δε=14 mM^−1 cm^−1.
The genes were transformed into modified E. coli BL21-CodonPlus (DE3). An overnight anaerobic preculture (100 ml) of a fresh single colony was used to inoculate 1 liter Standard I medium, described above, containing antibiotics (carbenicillin, 100 μg·ml^−1; chloramphenicol, 50 μg·ml^−1) and grown at the same conditions. When the culture reached OD578=0.2, gene expression was induced with isopropyl-1-thio-β-D-galactoside, IPTG (240 mg·liter^−1) and anhydrotetracycline, AHT (200 μg·liter^−1). Cells were harvested 3 hours after induction (at OD578=0.573), washed and suspended in 20 ml of buffer (50 mM MOPS, 5 mM MgCl2 and 2 mM DTT) under anoxic conditions. The induced E. coli cells were lysed by French press and cell debris was removed by ultracentrifugation at 100 000 g at 4° C. for 1 hour.
as §4

In the case of CCC(=O)O [propionate], the “Substrate of the enzyme” value [1] is listed as “acts on”.

In the case of CC(=O)O [acetate], the “Substrate of the enzyme” value [1] is given as “acts on”.

In the case of O=C(O)CCCCC(=O)O [adipate], the “Substrate of the enzyme” value [1] is listed as “acts on”.

In the case of C=CC(=O)O [acrylate], the “Substrate of the enzyme” value [1] is listed as “acts on”.

In the case of O=C(O)/C=C/CC(=O)O [(E)-glutaconate], the “Substrate of the enzyme” value [1] is listed as “acts on”.

In the case of O=C(O)CC[C@@H](O)C(=O)O [(R)-2-hydroxyglutarate], the “Substrate of the enzyme” value [1] is given as “acts on”.

B1: 2-Hydroxyglutaryl-CoA dehydratase from Clostridium symbiosum and activator from Acidaminococcus fermentans ([Clostridium] symbiosum) (protein)
chain 1: MAKQVSPGVLALRKVVDDVHKEAREAKARGELVGWSSSKFPCELAAAFDLNVMYPENQAAGIAANRYGEMMCQAAEDLGYDNDICGYARISLAYAAGVRVSRKYDAETGEYIIDPATGKPLKDAEGNVVIDEATGKPKKDPKTQTPYLVLDNLLEIEALPDGPEKERRLEAISPIRQMRIPQPDFVLCCNNICNCMTKWYENIARMCNVPLIMIDIPYNNTVEVHDDNVKYVRAQFDKAIKQLEELTGKKFDEKKFEKACSNANRTAQAWLKVCDYLQYKPAPYSGFDLFNHMADVVTARARVEAAEAFELLADDLEETVKKGETTTPFPEKYRVMFEGIPCWPKLPNLFKPLKEHGVNVTAVVYAPAFGFVYNNIDEMARAYYKAPNSVCIEQGVDWREGICRDNKVDGVLVHYNRSCKPWSGYMAEMQRRFTEDLGVPCAGFDGDQADPRNFNAAQYETRVQGLVEAMEANKQAKEAK
chain 2: MSINALLDEFKVKAATPKQQLAEYKAQGKKVIGVLPYYAPEELVYAAGMVPMGIWGSNNKTISRAKEYCATFYCTIAQLALEMLLDGTMDQLDGIITPTICDTLRPMSQNFRVAMGDKMAVIFLAQPQNRFEDFGLQFSVDQYTNVKKELEKVAGKEITNEAIQDAIKVYNKSRAARRKFVELASAHCDVITPTKRSAVLKSFFFMEKPEYIEKLEELNAELEKLPVCDWQGTKVVTSGIICDNPKLLEIFEENNIAIAADDVGHESRSFRVDAPEDEADALMALAKQFANMDYDVLLYDPKSTENRRGEFIANMVKESGAQGLVLFMQQFCDPEEMEYPYLKKALNNAGIPHIKLGIDQQMRDFGQASTAIQAFADVLEMQK
B1 gave a Km [2] of 570 µM, a kcat [2] of 1.9 s⁻¹ and a Km [3] of 100 µM. The kcat [3] was 17.4 s⁻¹, the Km [4] was 52 µM and the kcat [4] was 83 s⁻¹.

B2: 2-Hydroxyglutaryl-CoA dehydratase + activator: dehydratase (hgdAB) from C. symbiosum with activator (hgdC) from A. fermentans, expressed in E. coli BL21 (protein, listed as Clostridium symbiosum)
chain 1: B1 chain 1
chain 2: B1 chain 2
chain 3: MSIYTLGIDVGSTASKCIILKDGKEIVAKSLVAVGTGTSGPARSISEVLENAHMKKEDMAFTLATGYGRNSLEGIADKQMSELSCHAMGASFIWPNVHTVIDIGGQDVKVIHVENGTMTNFQMNDKCAAGTGRFLDVMANILEVKVSDLAELGAKSTKRVAISSTCTVFAESEVISQLSKGTDKIDIIAGIHRSVASRVIGLANRVGIVKDVVMTGGVAQNYGVRGALEEGLGVEIKTSPLAQYNGALGAALYAYKKAAK
modifications: Acidaminococcus fermentans
For B2, the “Activity, U” value [5] was 0.23 U and the “Specific activity, U/mg” value [5] was 0.80 U/mg.

B3: 2-Hydroxyglutarate dehydrogenase: enzyme from A. fermentans (hgdH) expressed in recombinant E. coli BL21 (protein)
chain: MKVLCYGVRDVELPIFEACNKEFGYDIKCVPDYLNTKETAEMAAGFDAVILRGNCFANKQNLDIYKKLGVKYILTRTAGTDHIDKEYAKELGFPMAFVPRYSPNAIAELAVTQAMMLLRHTAYTTSRTAKKNFKVDAFMFSKEVRNCTVGVVGLGRIGRVAAQIFHGMGATVIGEDVFEIKGIEDYCTQVSLDEVLEKSDIITIHAPYIKENGAVVTRDFLKKMKDGAILVNCARGQLVDTEAVIEAVESGKLGGYGCDVLDGEASVFGKDLEGQKLENPLFEKLVDLYPRVLITPHLGSYTDEAVKNMVEVSYQNLKDLAETGDCPNKIK
modifications: Acidaminococcus fermentans
notes: enzyme from A. fermentans (hgdH) expressed in recombinant E. coli BL21
With B3 the “Activity, U” value [6] was 730 U and the “Specific activity, U/mg” value [6] was 250 U/mg.

B4: Glutaconate CoA-transferase: enzyme from A. fermentans (gctAB) expressed in recombinant E. coli BL21 (protein)
chain 1: LSKVMTLKDAIAKYVHSGDHIALGGFTTDRKPYAAVFEILRQGITDLTGLGGAAGGDWDMLIGNGRVKAYINCYTANSGVTNVSRRFRKWFEAGKLTMEDYSQDVIYMMWHAAALGLPFLPVTLMQGSGLTDEWGISKEVRKTLDKVPDDKFKYIDNPFKPGEKVVAVPVPQVDVAIIHAQQASPDGTVRIWGGKFQDVDIAEAAKYTIVTCEEIISDEEIRRDPTKNDIPGMCVDAVVLAPYGAHPSQCYGLYDYDNPFLKVYDKVSKTQEDFDAFCKEWVFDLKDHDEYLNKLGATRLINLKVVPGLGYHIDMTKEDK
chain 2: MADYTNYTNKEMQAVTIAKQIKNGQVVTVGTGLPLIGASVAKRVYAPDCHIIVESGLMDCSPVEVPRSVGDLRFMAHCGCIWPNVRFVGFEINEYLHKANRLIAFIGGAQIDPYGNVNSTSIGDYHHPKTRFTGSGGANGIATYSNTIIMMQHEKRRFMNKIDYVTSPGWIDGPGGRERLGLPGDVGPQLVVTDKGILKFDEKTKRMYLAAYYPTSSPEDVLENTGFDLDVSKAVELEAPDPAVIKLIREEIDPGQAFIQVPTEAK
modifications: Acidaminococcus fermentans
notes: enzyme from A. fermentans (gctAB) expressed in recombinant E. coli BL21
In the case of B4, the “Activity, U” value [7] is reported as 0.71 U and the “Specific activity, U/mg” value [7] is reported as 0.25 U/mg.
